According to PMC4380549:

Target: FGFR3 TM-JM-YFP/mCherry (human)
Experiment: FRET or BRET

- percent dimer: 100%
Substance: FGFR3 TM-JM-YFP/mCherry (domain or fragment)
